T1: hATP11C-GFP (human ATP11C tagged with GFP at the C-terminus), Q8NB49
T1 chain: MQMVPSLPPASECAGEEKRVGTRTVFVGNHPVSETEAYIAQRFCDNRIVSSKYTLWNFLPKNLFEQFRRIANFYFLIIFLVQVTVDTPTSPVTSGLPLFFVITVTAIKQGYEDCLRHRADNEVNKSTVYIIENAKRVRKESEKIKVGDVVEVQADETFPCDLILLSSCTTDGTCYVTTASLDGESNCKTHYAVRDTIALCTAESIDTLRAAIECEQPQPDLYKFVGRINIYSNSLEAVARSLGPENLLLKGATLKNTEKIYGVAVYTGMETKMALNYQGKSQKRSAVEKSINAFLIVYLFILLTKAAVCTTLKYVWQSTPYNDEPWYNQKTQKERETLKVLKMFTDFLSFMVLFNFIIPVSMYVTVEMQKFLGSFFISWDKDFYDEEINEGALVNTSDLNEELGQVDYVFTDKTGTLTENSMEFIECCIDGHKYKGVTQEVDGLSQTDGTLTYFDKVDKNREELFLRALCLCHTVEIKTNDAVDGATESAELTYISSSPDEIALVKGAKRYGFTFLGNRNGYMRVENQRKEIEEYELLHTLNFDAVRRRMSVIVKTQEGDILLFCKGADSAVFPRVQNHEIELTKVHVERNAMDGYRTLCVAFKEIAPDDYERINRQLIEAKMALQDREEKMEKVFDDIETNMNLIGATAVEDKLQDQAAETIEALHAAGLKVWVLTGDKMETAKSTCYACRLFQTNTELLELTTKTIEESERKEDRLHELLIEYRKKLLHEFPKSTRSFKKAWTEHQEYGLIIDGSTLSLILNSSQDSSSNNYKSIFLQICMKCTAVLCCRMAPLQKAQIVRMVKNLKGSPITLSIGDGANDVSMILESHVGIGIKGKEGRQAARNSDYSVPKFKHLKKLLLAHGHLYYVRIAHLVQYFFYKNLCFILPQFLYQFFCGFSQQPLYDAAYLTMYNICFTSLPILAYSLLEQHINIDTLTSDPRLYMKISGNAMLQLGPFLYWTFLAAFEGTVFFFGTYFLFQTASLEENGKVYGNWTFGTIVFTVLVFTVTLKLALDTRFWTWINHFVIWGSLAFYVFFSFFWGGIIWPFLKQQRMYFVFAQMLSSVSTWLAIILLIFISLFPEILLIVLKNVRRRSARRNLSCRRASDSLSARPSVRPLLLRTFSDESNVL

B1: recombinant human caspase-3 (Biovision) (protein)
chain: SGISLDNSYKMDYPEMGLCIIINNKNFHKSTGMTSRSGTDVDAANLRETFRNLKYEVRNKNDLTREEIVELMRDVSKEDHSKRSSFVCVLLSHGEEGIIFGTNGPVDLKKITNFFRGDRCRSLTGKPKLFIIQACRGTELDCGIETDSGVDDDMACHKIPVEADFLYAYSTAPGYYSWRNSKDGSWFIQSLCAMLKQYADKLEFMHILTRVNRKVATEFESFSFDATFHAKKQIPCIVSMLTKELYFYH
B2: recombinant human caspase-7 (Biovision) (protein)
chain: AKPDRSSFVPSLFSKKKKNVTMRSIKTTRDRVPTYQYNMNFEKLGKCIIINNKNFDKVTGMGVRNGTDKDAEALFKCFRSLGFDVIVYNDCSCAKMQDLLKKASEEDHTNAACFACILLSHGEENVIYGKDGVTPIKDLTAHFRGDRCKTLLEKPKLFFIQACRGTELDDGIQADSGPINDTDANPRYKIPVEADFLFAYSTVPGYYSWRSPGRGSWFVQALCSILEEHGKDLEIMQILTRVNDRVARHFESQSDDPHFHEKKQIPCVVSMLTKELYFSQ
B3: recombinant human caspase-6 (Biovision) (protein)
chain: AFYKREMFDPAEKYKMDHRRRGIALIFNHERFFWHLTLPERRGTCADRDNLTRRFSDLGFEVKCFNDLKAEELLLKIHEVSTVSHADADCFVCVFLSHGEGNHIYAYDAKIEIQTLTGLFKGDKCHSLVGKPKIFIIQACRGNQHDVPVIPLDVVDNQTEKLDTNITEVDAASVYTLPAGADFLMCYSVAEGYYSHRETVNGSWYIQDLCEMLGKYGSSLEFTELLTLVNRKVSQRRVDFCKDPSAIGKKQVPCFASMLTKKLHFFPKSN

Target: T1, hATP11C-GFP (human ATP11C tagged with …)

| Protein | cleavage of hATP11C-GFP in solubilized membrane fraction, Western blotting with anti-GFP |
| --- | --- |
| B1 | hATP11C was cleaved by caspase-3, -6 and -7 |
| B2 | hATP11C was cleaved by caspase-3, -6 and -7 |
| B3 | hATP11C was cleaved by caspase-3, -6 and -7 |

From US20170023548
